Data published in US5981483A, “Compositions comprising modulators of cytokines of the TGF-β superfamily” (Mount Sinai Hospital Corporation, priority 1997, dated 1999).

Columns and labels:
[1] = molecular target: T1, TGF-β2 (Homo sapiens, UniProt P61812); assay: BIAcore surface plasmon resonance, binding to immobilized TGF-β2; details: ligand TGF-β2
T1 construct: The mature processed cytokines produced from the members of the gene family show almost 100% amino acid identity between species
T1 sequence (P61812 303-414 limits assumed): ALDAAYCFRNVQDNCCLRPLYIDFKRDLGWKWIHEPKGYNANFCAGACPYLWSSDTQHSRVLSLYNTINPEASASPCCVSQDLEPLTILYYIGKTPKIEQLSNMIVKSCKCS
Description: (§1) In this system, a purified protein serving as the ligand is covalently coupled to a carboxymethylated dextran surface, and binding molecules (i.e. the analyte) are passed in a fluid phase across the surface. Binding of the analyte to ligand causes a change in reflected light which is directly proportional to mass bound, and is measured in arbitrary response units (R.U.). Analyte-ligand binding is observed as both increasing response with time during the injection of analyte, and the difference in the position of the baseline before and after injection.
(§2) Schuster, R. V. Swanson, L. A. Alex, R. B. Bourret, M. I. Simon, Nature 365, 343 (1993). 1000 R.U. equals approximately 1 ng/mm^2. The running buffer was 20 mM Hepes (pH 7.2), 150 mM NaCl and the flow rate for all sensorgrams was 3 μl/min.
(§3) Regeneration of the surface to remove bound analyte was done by injection of 10 μl of 20 mM NaOH. To cyclize TRH1 peptides, the material was reduced with 5 mM DTT then brought to a final concentration of 60 μM in 25 mM ammonium acetate (pH 8.5). After stirring in the dark for 30 min at 20° C. with 30 mM potassium ferricyanide, the peptide was mixed with AG3-X4A resin (BioRad), filtered, lyophilization and desalted on a 50×2.5 cm column of Biogel P2 (Pharmacia) developed in water, and further purified by reverse phase HPLC.
Data was analyzed using the BIA-evaluation software (Pharmacia Biosensor). The association rate constant, kass, was calculated by first plotting the change in response with time versus response (i.e. dR/dT vs R). When the slope of the line from this graph is plotted versus analyte concentration (i.e d(dR/dT)/dR vs C), kass is obtained from the slope of the line. The dissociation rate constant, kdiss, is obtained during the decrease in response with time after analyte injection is discontinued. Specifically, kdiss was obtained from the slope of the line in a plot of ln(Rt1 /Rtn) vs time. The affinity constants were calculated from KD =kdiss /kass. […]

[2] = molecular target: T2, BMP-2 (Homo sapiens, UniProt P12643); assay: BIAcore surface plasmon resonance, binding to immobilized BMP-2; details: ligand BMP-2
T2 construct: Genetics Institute, Cambridge, Mass; (gift)
T2 sequence (P12643 283-396): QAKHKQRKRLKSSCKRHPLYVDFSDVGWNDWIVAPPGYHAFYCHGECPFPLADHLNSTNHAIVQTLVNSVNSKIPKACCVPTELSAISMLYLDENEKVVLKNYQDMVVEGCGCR
Description: as §1, §2, §3
Injection volumes were 36 μl for FIG. 2, 4 and 5 and 45 μl for FIG. 3. […] Protein concentrations in each experiment were (FIGS. 2 and 3), 2, 5, 10, 20, 30, 40 μM; (FIG. 4), 0.21, 0.31, 0.41, 0.62, 0.82, 1.24 μM; (FIG. 5), 0.22, 0.29, 0.44, 0.59, 0.88 μM. R.U. for the immobilized cytokine in each experiment was 2850 R.U. for FIGS. 2 and 3; 7450 R.U. for FIG. 4, and 5300 R.U., for FIG. 5 respectively.
Data was analyzed using the BIA-evaluation software (Pharmacia Biosensor). The association rate constant, kass, was calculated by first plotting the change in response with time versus response (i.e. dR/dT vs R). When the slope of the line from this graph is plotted versus analyte concentration (i.e d(dR/dT)/dR vs C), kass is obtained from the slope of the line. The dissociation rate constant, kdiss, is obtained during the decrease in response with time after analyte injection is discontinued. Specifically, kdiss was obtained from the slope of the line in a plot of ln(Rt1 /Rtn) vs time. The affinity constants were calculated from KD =kdiss /kass. Variance for kass is standard error of the linear regression plot, and for kdiss values are the mean ± range of 3 or more independent injections.

[3] = molecular target: T3, BMP-6 (Homo sapiens, UniProt P22004); assay: BIAcore surface plasmon resonance, binding to immobilized BMP-6; details: Table 1; ligand BMP-6
T3 sequence (P22004 375-513): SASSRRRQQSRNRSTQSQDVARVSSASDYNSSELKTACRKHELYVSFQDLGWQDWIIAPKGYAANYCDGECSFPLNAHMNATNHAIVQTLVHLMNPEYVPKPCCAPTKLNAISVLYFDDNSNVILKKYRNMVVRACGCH
Description: as §1, §2
(§4) Regeneration of the surface to remove bound analyte was done by injection of 10 μl of 20 mM NaOH. To cyclize TRH1 peptides, the material was reduced with 5 mM DTT then brought to a final concentration of 60 μM in 25 mM ammonium acetate (pH 8.5). […]
(§5) Data was analyzed using the BIA-evaluation software (Pharmacia Biosensor). The association rate constant, kass, was calculated by first plotting the change in response with time versus response (i.e. dR/dT vs R). […] The affinity constants were calculated from KD =kdiss /kass. […]

[4] = molecular target: T4, BMP-4 (Homo sapiens, UniProt P12644); assay: BIAcore surface plasmon resonance, binding to immobilized BMP-4; details: Table 2 (calculations repeated); ligand BMP-4; KD = kdiss/kass
T4 sequence (P12644 293-408): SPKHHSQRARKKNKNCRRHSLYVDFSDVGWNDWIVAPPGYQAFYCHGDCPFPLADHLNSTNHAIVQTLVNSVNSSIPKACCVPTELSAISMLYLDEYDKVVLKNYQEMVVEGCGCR
Description: as §1, §2, §4, §5

[5] = Table 2 (calculations repeated)

Substance: Fetuin: Bovine fetal fetuin, glycoprotein obtained by ammonium sulfate fractionation of FCS and gel filtration (Sigma)
- kass ([1]; Table 1): 550 ± 120 M⁻¹ s⁻¹
- kass [1, 5]: 550 ± 120 M⁻¹ s⁻¹
- kass ([2]; Table 1): 1700 ± 300 M⁻¹ s⁻¹
- kass ([2]; Table 1, listed as fetuin): 1700 M⁻¹ s⁻¹
- kdiss ([2]; Table 1, listed as fetuin): 6.2e-05 s⁻¹
- kass [2, 5]: 2400 ± 1200 M⁻¹ s⁻¹
- kdiss [2, 5]: 6.5e-05 s⁻¹
- Kd ([2]; Table 2 (calculations repeated), KD = kdiss/kass): 27 nM
- kass [3]: 2900 ± 500 M⁻¹ s⁻¹
- Kd [4]: 120 nM
